# Test results: patent US20090202574A1, “METHODS OF IMMUNE OR HAEMATOLOGICAL ENHANCEMENT, INHIBITING TUMOUR FORMATION OR GROWTH, AND TREATING OR PREVENTING CANCER” (priority 2004, published 2009)
# Experiments:
# [1] = system: EL-4 tumours; experiment: EL-4 tumour growth in mice (s.c. flank tumour model); format: in vivo, C57BL/6 mice; conditions: Example 1; oral diet; day 42; vs control diet
# [2] = system: IL-18; experiment: IL-18 production by cultured intestinal loops; format: cell-based, mice; conditions: Example 20; 400 and 800 μg/ml; 48 h; vs bovine serum albumin control protein
# Method: Cytokine levels in the supernatants of homogenates of the small intestine were determined using a “sandwich” ELISA kit (Endogen, Woburn, Mass.). They were detected within standard curve ranges of 15-375 pg/ml for IL-4, 0-2450 pg/ml for IL-5, 15-1000 pg/ml for TNF-α, 0-3000 pg/ml for IFN-γ, 37-3000 pg/ml for IL-10, 31.3-2000 pg/ml for IL-12, and 31.3-2000 pg/ml for IL-18, respectively. Quantification of nitrite, indicative of NO production, was carried out by the Griess reaction (Sigma, USA). The results are expressed as the mean nitrite concentration (μM)±SD.
# 100% Fe-saturated Lf, natural Lf (less than 20% iron saturated), and bovine serum albumin control were added at 400 and 800 μg/ml to intestinal loops (2.5 cm segments of the small intestine) prepared from healthy 6 to 7 week-old female mice, which were kept in culture for 48 h. IL-18 levels released by the intestinal loops, and present in the supernatants of homogenates of the small intestine were determined using a “sandwich” ELISA kit as described above.
# [3] = system: EL-4 target cells; experiment: Anti-tumour CTL and/or NK cell cytolytic activity of splenocytes against EL-4 target cells; conditions: Example 1; splenocytes at day 42; vs control diet
# Method: Splenocytes were harvested 28 days following tumour cell injection, as specified. They were incubated at 37° C. with EL-4 target cells in graded E:T ratios in 96-well round-bottom plates. After a 4-hour incubation, 50 μl of supernatant was collected, and lysis was measured using the Cyto Tox 96 Assay Kit (Promega, Madison, Wis., USA). Background controls for non-specific target and effector cell lysis were included. After background subtraction, percentage of cell lysis was calculated using the formula: 100× (experimental-spontaneous effector-spontaneous target/maximum target-spontaneous target).
# [4] = system: IL-18; conditions: WO 03/099323, cited from earlier work
Molecule,inhibition in tumour size [1],increase in the levels of IL-18 in the intestine [2],anti-tumour CTL and/or NK cell activity of splenocytes [3],serum levels of IL-18 [4],intestinal IL-18 levels ([4]; compared with recombinant human lactoferrin)
"natural bLf: bovine lactoferrin extract from skim milk with natural levels of iron-saturation of approximately 5 to 15% (protein, UniProt P24627 20-708, looked up) Lactotransferrin: APRKNVRWCTISQPEWFKCRRWQWRMKKLGAPSITCVRRAFALECIRAIAEKKADAVTLDGGMVFEAGRDPYKLRPVAAEIYGTKESPQTHYYAVAVVKKGSNFQLDQLQGRKSCHTGLGRSAGWIIPMGILRPYLSWTESLEPLQGAVAKFFSASCVPCIDRQAYPNLCQLCKGEGENQCACSSREPYFGYSGAFKCLQDGAGDVAFVKETTVFENLPEKADRDQYELLCLNNSRAPVDAFKECHLAQVPSHAVVARSVDGKEDLIWKLLSKAQEKFGKNKSRSFQLFGSPPGQRDLLFKDSALGFLRIPSKVDSALYLGSRYLTTLKNLRETAEEVKARYTRVVWCAVGPEEQKKCQQWSQQSGQNVTCATASTTDDCIVLVLKGEADALNLDGGYIYTAGKCGLVPVLAENRKSSKHSSLDCVLRPTEGYLAVAVVKKANEGLTWNSLKDKKSCHTAVDRTAGWNIPMGLIVNQTGSCAFDEFFSQSCAPGADPKSRLCALCAGDDQGLDKCVPNSKEKYYGYTGAFRCLAEDVGDVAFVKNDTVWENTNGESTADWAKNLNREDFRLLCLDGTRKPVTEAQSCHLAVAPNHAVVSRSDRAAHVKQVLLHQQALFGKNGKNCPDKFCLFKSETKNLLFNDNTECLAKLGGRPTYEEYLGTEYVTAIANLKKCSTSPLLEACAFLTR",11%,~2 fold,slightly enhanced,,
"bovine lactoferrin: bovine lactoferrin as reported in WO 03/099323, compared with recombinant human lactoferrin (protein, Bovine Lactoferrin, bovine lactoferrin as reported in WO 03/099323, compared with recombinant human lactoferrin) APRKNVRWCTISQPEWFKCRRWQWRMKKLGAPSITCVRRAFALECIRAIAEKKADAVTLDGGMVFEAGRDPYKLRPVAAEIYGTKESPQTHYYAVAVVKKGSNFQLDQLQGRKSCHTGLGRSAGWIIPMGILRPYLSWTESLEPLQGAVAKFFSASCVPCIDRQAYPNLCQLCKGEGENQCACSSREPYFGYSGAFKCLQDGAGDVAFVKETTVFENLPEKADRDQYELLCLNNSRAPVDAFKECHLAQVPSHAVVARSVDGKEDLIWKLLSKAQEKFGKNKSRSFQLFGSPPGQRDLLFKDSALGFLRIPSKVDSALYLGSRYLTTLKNLRETAEEVKARYTRVVWCAVGPEEQKKCQQWSQQSGQNVTCATASTTDDCIVLVLKGEADALNLDGGYIYTAGKCGLVPVLAENRKSSKHSSLDCVLRPTEGYLAVAVVKKANEGLTWNSLKDKKSCHTAVDRTAGWNIPMGLIVNQTGSCAFDEFFSQSCAPGADPKSRLCALCAGDDQGLDKCVPNSKEKYYGYTGAFRCLAEDVGDVAFVKNDTVWENTNGESTADWAKNLNREDFRLLCLDGTRKPVTEAQSCHLAVAPNHAVVSRSDRAAHVKQVLLHQQALFGKNGKNCPDKFCLFKSETKNLLFNDNTECLAKLGGRPTYEEYLGTEYVTAIANLKKCSTSPLLEACAFLTR",,,,did not increase,lesser increase
